Measured values from patent US20180355059A1 (PHARMAEXPLORER, published 2018).

Experiments:
[1] = target: T1, recombinant human PCSK9 protein, His-tagged (Immunogen A, hPCSK9-His) (human, UniProt Q8NBP7 31-692, limits assumed, biotin-labelled in the ELISA and blocking assays (Biotin labeling kit)); assay: ELISA, biotin-hPCSK9-His on streptavidin plate; antibody 0.67 nM
T1 construct: also called human PCSK9-His; recombinant hPCSK9-His; not shown: His tag

[2] = target: T1, recombinant human PCSK9 protein, …; assay: ELISA, biotin-hPCSK9-His on streptavidin plate; antibody 6.67 nM
Method: (§1) The next day, the plates were washed twice with wash buffer [0.01% (v/v) Tween 20], then blocked with blocking buffer [0.01% (v/v) 0.1% BSA (w/w) Tween 20] at room temperature for 2 hours. […] Unbound PCSK9 proteins were removed by washing the plate three times with wash buffer [0.01% (v/v) Tween 20]. […] The plates were washed twice with wash buffer [0.01% (v/v) Tween 20], and 200 uL HRP-conjugated secondary antibody (Sigma) was added to each well and incubated for 2 hours at 37° C. After the plates were washed three times with wash buffer, 100 ul TMB substrate were added to each well and incubated for 30 minutes at room temperature. 100 ul stop solution (0.1N HCl) were added to each well to stop the reaction.

[3] = target: T2, recombinant cyno monkey PCSK9 protein (cyno monkey, UniProt A8T666 31-692 (rhesus entry), limits assumed, biotin-labelled in the ELISA (Biotin labeling kit)); assay: ELISA, biotin-cyno PCSK9 on streptavidin plate; antibody 0.67 nM
T2 construct: also called cyno PCSK9; Cyno Monkey PCSK9-His
Method: as §1

[4] = target: T2, recombinant cyno monkey PCSK9 protein; assay: ELISA, biotin-cyno PCSK9 on streptavidin plate; antibody 6.67 nM
Method: as §1

[5] = target: T1, recombinant human PCSK9 protein, …; assay: ELISA, biotin-hPCSK9-His on streptavidin plate; antibody 0.067 nM
Method: as §1

[6] = target: T1, recombinant human PCSK9 protein, …; assay: ELISA, biotin-hPCSK9-His on streptavidin plate; antibody 66.67 nM
Method: as §1

[7] = target: T2, recombinant cyno monkey PCSK9 protein; assay: ELISA, biotin-cyno PCSK9 on streptavidin plate; antibody 0.067 nM
Method: as §1

[8] = target: T2, recombinant cyno monkey PCSK9 protein; assay: ELISA, biotin-cyno PCSK9 on streptavidin plate; antibody 66.67 nM
Method: as §1

[9] = target: T1, recombinant human PCSK9 protein, …; assay: ELISA, biotin-hPCSK9-His on streptavidin plate; antibody 0.0067 nM
Method: as §1

[10] = target: T2, recombinant cyno monkey PCSK9 protein; assay: ELISA, biotin-cyno PCSK9 on streptavidin plate; antibody 0.0067 nM
Method: as §1

[11] = target: T1, recombinant human PCSK9 protein, …; assay: ELISA, biotin-hPCSK9-His on streptavidin plate; antibody 0.00067 nM
Method: as §1

[12] = target: T2, recombinant cyno monkey PCSK9 protein; assay: ELISA, biotin-cyno PCSK9 on streptavidin plate; antibody 0.00067 nM
Method: as §1

[13] = target: T1, recombinant human PCSK9 protein, …; assay: ELISA, biotin-hPCSK9-His on streptavidin plate; antibody 0.000067 nM
Method: as §1

[14] = target: T1, recombinant human PCSK9 protein, …; assay: ELISA, biotin-hPCSK9-His on streptavidin plate; antibody 0 nM (blank)
Method: as §1

[15] = target: T2, recombinant cyno monkey PCSK9 protein; assay: ELISA, biotin-cyno PCSK9 on streptavidin plate; antibody 0 nM (blank)
Method: as §1

[16] = target: T1, recombinant human PCSK9 protein, …; assay: blocking ELISA, biotin-hPCSK9-His on coated LDLR ECD-His; antibody 8 nM
Method: (§2) Purified LDLR^ECD-His was diluted with PBS to a final concentration of 1.0 ug/ml, and 100 uL of diluted LDLR^ECD-His were added to each well of 96-well plate that was then sealed with plastic film and incubated at 4° C. overnight. The plate was washed twice with wash buffer [PBS+0.01% (v/v) Tween 20] and incubated with blocking buffer [PBS+0.01% (v/v) BSA+1% Tween20 (w/w)] at room temperature for 2 hours. […] The plate was washed three times with wash buffer [0.01% (v/v) Tween 20]. 100 uL HRP-conjugated streptavidin (Sigma) were then added to each well and incubated at 37° C. for 1 hour. The plate was then washed three times with wash buffer, and 100 uL TMB substrate were added to each well. After 15 minutes of incubation at room temperature, the reaction was stopped by adding 50 uL stop solution (0.1N HCl).

[17] = target: T1, recombinant human PCSK9 protein, …; assay: blocking ELISA, biotin-hPCSK9-His on coated LDLR ECD-His; antibody 40 nM
Method: as §2

[18] = target: T1, recombinant human PCSK9 protein, …; assay: blocking ELISA, biotin-hPCSK9-His on coated LDLR ECD-His; antibody 1.6 nM
Method: as §2

[19] = target: T1, recombinant human PCSK9 protein, …; assay: blocking ELISA, biotin-hPCSK9-His on coated LDLR ECD-His; antibody 200 nM
Method: as §2

[20] = target: T1, recombinant human PCSK9 protein, …; assay: blocking ELISA, biotin-hPCSK9-His on coated LDLR ECD-His; antibody 0.01 nM
Method: as §2

[21] = target: T1, recombinant human PCSK9 protein, …; assay: blocking ELISA, biotin-hPCSK9-His on coated LDLR ECD-His; antibody 0.06 nM
Method: as §2

[22] = target: T1, recombinant human PCSK9 protein, …; assay: blocking ELISA, biotin-hPCSK9-His on coated LDLR ECD-His; antibody 0.32 nM
Method: as §2

T2 sequence (A8T666 31-692 limits assumed): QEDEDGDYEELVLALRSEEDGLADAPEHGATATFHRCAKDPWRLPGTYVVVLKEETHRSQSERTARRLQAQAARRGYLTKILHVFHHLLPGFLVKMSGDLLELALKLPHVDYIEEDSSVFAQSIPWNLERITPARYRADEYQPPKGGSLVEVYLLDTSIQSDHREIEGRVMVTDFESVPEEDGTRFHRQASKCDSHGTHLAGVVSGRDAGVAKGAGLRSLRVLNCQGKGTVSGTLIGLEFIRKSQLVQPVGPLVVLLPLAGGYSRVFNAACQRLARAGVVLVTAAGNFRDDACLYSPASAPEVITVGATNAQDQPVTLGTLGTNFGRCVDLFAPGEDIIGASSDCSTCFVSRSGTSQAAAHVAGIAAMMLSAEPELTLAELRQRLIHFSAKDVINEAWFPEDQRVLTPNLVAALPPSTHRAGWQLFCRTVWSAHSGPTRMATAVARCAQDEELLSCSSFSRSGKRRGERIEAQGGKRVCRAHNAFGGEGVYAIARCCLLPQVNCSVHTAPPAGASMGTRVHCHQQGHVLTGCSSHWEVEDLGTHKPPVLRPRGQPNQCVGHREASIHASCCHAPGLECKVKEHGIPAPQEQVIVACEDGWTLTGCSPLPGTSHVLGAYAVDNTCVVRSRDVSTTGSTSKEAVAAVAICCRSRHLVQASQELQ

OD450 nm [1]	OD450 nm [2]	OD450 nm [5]	OD450 nm [6]	OD450 nm [9]	OD450 nm [11]	OD450 nm [13]	OD450 nm [14]	OD450 nm (PCSK9 bound to LDLR) [16]	OD450 nm (PCSK9 bound to LDLR) [17]	OD450 nm (PCSK9 bound to LDLR) [19]	OD450 nm (PCSK9 bound to LDLR) [20]	OD450 nm (PCSK9 bound to LDLR) [21]	OD450 nm (PCSK9 bound to LDLR) [22]	Binder	further results
2.73 OD450 nm	2.89 OD450 nm	1 OD450 nm	2.86 OD450 nm	0.3 OD450 nm	0.18 OD450 nm	0.17 OD450 nm	0.2 OD450 nm	0.53 OD450 nm	0.45 OD450 nm	0.63 OD450 nm	1.19 OD450 nm	1.25 OD450 nm	1.16 OD450 nm	96F8C6, chimeric anti-PCSK9 mAb purified from hybridoma (antibody, V domains shown, From Harbour H2L2 mice: human variable regions, rat constant regions) VH: EVQLVESGGGLVQPGGSLRLSCAASGITFSSYWMSWVRQAPGKGLEWVANIKQDGSEKYYVDSVKGRFTISRDIAKNSLYLQMNSLRAEDTAVYYCARDRGTYYYGSGSYNYYYYGMDVWGQGTTVTVSS VL: not shown	OD450 nm [3]: 2.26 OD450 nm; OD450 nm [4]: 2.58 OD450 nm; OD450 nm [7]: 0.77 OD450 nm; OD450 nm [8]: 2.87 OD450 nm; OD450 nm [10]: 0.25 OD450 nm; OD450 nm [12]: 0.23 OD450 nm; OD450 nm [15]: 0.25 OD450 nm; OD450 nm (PCSK9 bound to LDLR) [18]: 0.97 OD450 nm
2.41 OD450 nm	2.71 OD450 nm	0.68 OD450 nm	2.72 OD450 nm	0.21 OD450 nm	0.15 OD450 nm	0.11 OD450 nm	0.14 OD450 nm	0.87 OD450 nm	0.77 OD450 nm	0.54 OD450 nm	0.97 OD450 nm	0.96 OD450 nm	0.92 OD450 nm	103C11E8, chimeric anti-PCSK9 mAb purified from hybridoma (antibody, V domains shown, From Harbour H2L2 mice: human variable regions, rat constant regions) VH: QVQLQESGPGLVKPSGTLSLTCAVSGGSISSSNWWSWVRQPPGKGLEWIGEIYHSGSTNYNPSLKSRVTISVDKSKNQFSLKLSSVTAADTAVYYCARGIAVAGTDVMDAWGQGASVTVSS VL: EIVLTQSPATLSLSPGERATLSCRASQSVSSYLVWYQQKSGQAPRLLIYGTSNRATGIPARFSGSGSGTDFTLTISSLEPEDFALYYCQQRGNWMYTFGQGTKLEIK	
